B1: TATA0 (dsDNA)
DNA 1: CAGTAAAAGCTTGGTAGTATTTCTTCTCTCTTTCAC
DNA 2: GTGAAAGAGAGAAGAAATACTACCAAGCTTTTACTG
B2: TATAP (dsDNA)
DNA 1: GGAGCGGCATATGTCAAGTATAAAGAGCGGAATGTTTTTC
DNA 2: GAAAAACATTCCGCTCTTTATACTTGACATATGCCGCTCC
B3: TATAC (dsDNA)
DNA 1: CAGTAAAAGCTTGGTAGTATTTATATCTTCTCTCTTTCAC
DNA 2: GTGAAAGAGAGAAGATATAAATACTACCAAGCTTTTACTG

Target: BbMBF1 (multiprotein bridging factor 1) (Beauveria bassiana, UniProt J4WFU2 1-153)
Test: EMSA; Binding buffer (4 ul in 20 ul reaction): 60 mM KCl, 20 mM Tris pH 7.9, 5 mM MgCl2, 10 mM DTT, 0.2 mg/ml BSA, 10% glycerol; 30 min at 37 C; 6% non-denaturing PAGE
Settings: protein: recombinant; tags: 6xHis (C-terminal; pET28a, thrombin site); blunt

| Binder | binding result |
| --- | --- |
| B1 | no binding |
| B2 | no binding |
| B3 | no binding |

Source: publication PMC4605657, “Interaction between TATA-Binding Protein (TBP) and Multiprotein Bridging Factor-1 (MBF1) from the Filamentous Insect Pathogenic Fungus Beauveria bassiana”
